The values below come from paper PMC5584168.

Experiment [1] has as its target Taxol-stabilized microtubules polymerised from bovine tubulin (bovine) (UniProt Q6B856). In words: wide-field fluorescence microscopy of labelled protein on microtubules; 1 µM TMR-labeled She1 construct preincubated with 60 nM Taxol-stabilized HiLyte 488–labeled MTs, room temperature, 20 min, MAP-binding buffer with 150 mM KCl and 20 µM Taxol; MTs held in a flow chamber by antitubulin antibody; bound TMR fluorescence on the MT measured.

Experiment [2] deals with T1, full-length She1 (She1-FL), HALO-tagged (S. cerevisiae), P38200.
T1 chain: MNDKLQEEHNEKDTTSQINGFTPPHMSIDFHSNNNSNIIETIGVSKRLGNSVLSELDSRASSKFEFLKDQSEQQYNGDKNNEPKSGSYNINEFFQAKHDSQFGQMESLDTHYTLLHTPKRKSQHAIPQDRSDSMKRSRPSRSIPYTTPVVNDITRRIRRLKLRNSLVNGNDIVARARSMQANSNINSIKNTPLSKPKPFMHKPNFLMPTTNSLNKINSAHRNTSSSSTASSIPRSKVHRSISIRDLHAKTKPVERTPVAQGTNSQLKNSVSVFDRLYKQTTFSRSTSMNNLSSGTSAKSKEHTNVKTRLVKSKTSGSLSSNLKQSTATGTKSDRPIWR
Briefly: negative-stain EM; purified She1-FL at 4 µM on carbon-coated grids, 0.75% uranyl formate. The following applies: remark: other sources report otherwise.

Experiment [3] addresses Taxol-stabilized microtubules polymerised from bovine tubulin (bovine) (UniProt Q6B856). Briefly: co-sedimentation; low-speed microfuge pelleting (15,871 g, 10 min, room temperature); 5 µM She1-C–TMR with varying concentrations of Taxol-stabilized MTs, MAP buffer with 50 mM KCl; quadratic fit, apparent dissociation constant; stoichiometry from the saturation point.

B1: full-length She1 (She1-FL), HALO-tagged (natural protein)
chain: MNDKLQEEHNEKDTTSQINGFTPPHMSIDFHSNNNSNIIETIGVSKRLGNSVLSELDSRASSKFEFLKDQSEQQYNGDKNNEPKSGSYNINEFFQAKHDSQFGQMESLDTHYTLLHTPKRKSQHAIPQDRSDSMKRSRPSRSIPYTTPVVNDITRRIRRLKLRNSLVNGNDIVARARSMQANSNINSIKNTPLSKPKPFMHKPNFLMPTTNSLNKINSAHRNTSSSSTASSIPRSKVHRSISIRDLHAKTKPVERTPVAQGTNSQLKNSVSVFDRLYKQTTFSRSTSMNNLSSGTSAKSKEHTNVKTRLVKSKTSGSLSSNLKQSTATGTKSDRPIWR
modifications: HaloTag TMR ligand (MT-binding and cross-linking assays) or HaloTag Alexa Fluor 488 ligand (ultracentrifugation) on the HALO tag
In experiment [1], B1 displayed a mean TMR fluorescence on MTs of 22000 a.u.

B2: full-length She1 (She1-FL), HALO-tagged, P38200 1-338 (natural protein)
chain: MNDKLQEEHNEKDTTSQINGFTPPHMSIDFHSNNNSNIIETIGVSKRLGNSVLSELDSRASSKFEFLKDQSEQQYNGDKNNEPKSGSYNINEFFQAKHDSQFGQMESLDTHYTLLHTPKRKSQHAIPQDRSDSMKRSRPSRSIPYTTPVVNDITRRIRRLKLRNSLVNGNDIVARARSMQANSNINSIKNTPLSKPKPFMHKPNFLMPTTNSLNKINSAHRNTSSSSTASSIPRSKVHRSISIRDLHAKTKPVERTPVAQGTNSQLKNSVSVFDRLYKQTTFSRSTSMNNLSSGTSAKSKEHTNVKTRLVKSKTSGSLSSNLKQSTATGTKSDRPIWR
modifications: here or on the partner: HaloTag TMR ligand (MT-binding and cross-linking assays) or HaloTag Alexa Fluor 488 ligand (ultracentrifugation) on the HALO tag; HaloTag TMR ligand (MT-binding and cross-linking assays) or HaloTag Alexa Fluor 488 ligand (ultracentrifugation) on the HALO tag
In general, stoichiometry N refers to the number of molecules, sites or subunits per partner or assembly. In experiment [2], B2 gave a stoichiometry N of 6.

B3: She1-C, C-terminal 194–338 aa of She1, HALO-tagged (domain or fragment)
chain: SKPKPFMHKPNFLMPTTNSLNKINSAHRNTSSSSTASSIPRSKVHRSISIRDLHAKTKPVERTPVAQGTNSQLKNSVSVFDRLYKQTTFSRSTSMNNLSSGTSAKSKEHTNVKTRLVKSKTSGSLSSNLKQSTATGTKSDRPIWR
modifications: HaloTag TMR ligand on the HALO tag where labelled
For B3, the stoichiometry N (She1-C–TMR per tubulin) in experiment [3] turned out to be 1. The same molecule gave a mean TMR fluorescence on MTs in experiment [1] of 21000 a.u.
